Assay results published in patent publication CN111138531A (INST MILITARY MEDICINE ACADEMY MILITARY SCIENCES PLA, dated 2020).

Assays:
SUDV GP = target: T1, SUDV GP (SUDV, UniProt Q7T9D9 33-650); assay: ELISA, coated GP 1 μg/mL, 1:3 dilution series of 8F9
T1 sequence: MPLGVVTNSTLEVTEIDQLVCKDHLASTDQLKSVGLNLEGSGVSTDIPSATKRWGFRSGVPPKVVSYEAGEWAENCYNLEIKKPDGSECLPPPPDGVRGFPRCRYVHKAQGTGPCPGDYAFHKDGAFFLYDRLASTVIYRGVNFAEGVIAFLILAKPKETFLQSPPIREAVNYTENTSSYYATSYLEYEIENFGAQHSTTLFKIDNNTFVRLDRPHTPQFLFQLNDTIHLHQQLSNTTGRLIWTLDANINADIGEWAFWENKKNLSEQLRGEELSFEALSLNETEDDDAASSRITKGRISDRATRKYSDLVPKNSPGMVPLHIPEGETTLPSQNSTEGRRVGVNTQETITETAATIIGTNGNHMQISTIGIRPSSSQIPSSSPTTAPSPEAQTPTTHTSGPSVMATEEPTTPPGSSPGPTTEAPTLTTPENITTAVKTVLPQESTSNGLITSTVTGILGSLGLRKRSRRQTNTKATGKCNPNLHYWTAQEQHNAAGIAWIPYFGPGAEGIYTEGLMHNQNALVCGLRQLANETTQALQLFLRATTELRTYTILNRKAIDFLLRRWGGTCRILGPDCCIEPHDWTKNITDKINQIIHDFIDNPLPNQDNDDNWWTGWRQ

RESTV GP = target: T2, RESTV GP (RESTV, UniProt Q66799 34-651); assay: as above
T2 sequence: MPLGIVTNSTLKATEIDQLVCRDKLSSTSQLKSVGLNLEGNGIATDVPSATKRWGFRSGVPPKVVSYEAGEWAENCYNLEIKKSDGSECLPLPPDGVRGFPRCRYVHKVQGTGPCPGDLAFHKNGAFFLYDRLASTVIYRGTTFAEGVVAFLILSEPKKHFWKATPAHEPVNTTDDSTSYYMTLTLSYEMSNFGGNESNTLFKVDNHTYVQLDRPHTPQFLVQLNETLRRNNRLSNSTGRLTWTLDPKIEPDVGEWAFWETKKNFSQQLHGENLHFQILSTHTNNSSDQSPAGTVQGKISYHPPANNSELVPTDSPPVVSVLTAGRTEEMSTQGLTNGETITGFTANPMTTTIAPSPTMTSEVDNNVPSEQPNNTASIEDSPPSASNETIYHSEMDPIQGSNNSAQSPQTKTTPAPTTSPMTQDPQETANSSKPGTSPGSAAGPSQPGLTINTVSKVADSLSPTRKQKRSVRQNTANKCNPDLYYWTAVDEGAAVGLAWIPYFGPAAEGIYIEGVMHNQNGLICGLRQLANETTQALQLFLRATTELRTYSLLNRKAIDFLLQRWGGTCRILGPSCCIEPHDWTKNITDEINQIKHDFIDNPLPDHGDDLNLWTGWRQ

GP1 = GP1 (EBOV, UniProt Q05320 33-501); assay: ELISA on coated truncated GP, method as example 2
sGP = sGP (EBOV, UniProt Q05320 33-295); assay: ELISA on coated truncated GP, method as example 2
EBOV GP = target: T3, EBOV GP (EBOV, UniProt Q05320 33-650); assay: ELISA, coated GP 1 μg/mL, 1:3 dilution series of 8F9 from 10 μg/mL
T3 sequence: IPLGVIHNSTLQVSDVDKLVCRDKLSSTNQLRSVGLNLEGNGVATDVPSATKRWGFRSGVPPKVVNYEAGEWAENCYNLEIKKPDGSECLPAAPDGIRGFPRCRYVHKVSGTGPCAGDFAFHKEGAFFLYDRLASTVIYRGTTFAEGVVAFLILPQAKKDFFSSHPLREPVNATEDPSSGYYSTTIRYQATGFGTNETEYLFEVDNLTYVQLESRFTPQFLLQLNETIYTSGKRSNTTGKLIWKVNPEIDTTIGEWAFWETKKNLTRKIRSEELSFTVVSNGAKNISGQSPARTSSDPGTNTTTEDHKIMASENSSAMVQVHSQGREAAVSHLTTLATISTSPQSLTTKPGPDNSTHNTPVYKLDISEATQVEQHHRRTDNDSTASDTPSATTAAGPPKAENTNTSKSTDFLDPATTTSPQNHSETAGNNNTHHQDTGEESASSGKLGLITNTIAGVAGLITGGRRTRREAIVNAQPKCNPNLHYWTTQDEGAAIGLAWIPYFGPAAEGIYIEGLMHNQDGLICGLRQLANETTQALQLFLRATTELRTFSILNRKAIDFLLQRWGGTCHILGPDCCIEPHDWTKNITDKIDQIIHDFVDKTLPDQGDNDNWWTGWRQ

B1: 单克隆抗体8F9 (antibody, V domains shown)
VH: EVQLLESGGGLVQPGGSLRLSCAASEFTFSNYAMNWVRQAPGKGLEWVSGISTRGSSTYYADSVKGRFTISRDNSKNTLYLQMNSLRVEDTAVYYCAKDRLSVFGVVLISSDYYGMDVWGQGTTVTVSS
VL: AIRMTQSPFSLSASVGDRVTITCRASRTISSYLNWYQKKPGKAPKLLIYAASSLQSGVPSRFSGSGSGTDFTLTISSLQPEDFATYYCQQSYSTPMTFGQGTRLEIKT
**Q.** Does B1 bind (SUDV GP)?
**A.** no binding (tested: 10μg/mL (highest concentration tested))

**Q.** Does B1 bind (RESTV GP)?
**A.** no binding (tested: 10μg/mL (highest concentration tested))

**Q.** And the EC50 (GP1)?
**A.** 9.5 ng/mL

**Q.** And the EC50 (sGP)?
**A.** 8.8 ng/mL

**Q.** What about the EC50 (EBOV GP) of the same binder?
**A.** 0.015 µg/mL
